Measurements published in US20120269827A1, “Compositions and Methods for Treatment of Ovarian, Peritoneal, and Fallopian Tube Cancer” (ImmunoGen, Inc., priority 2011, published 2012).
“Also recorded” adds a separate entry of the source.

What was measured:
[1] = test system: COLO 720E human ovarian carcinoma xenografts; experiment: Anti-tumor effect of lorvotuzumab mertansine and gemcitabine in established subcutaneous COLO 720E xenografts (Example 1); assay type: in vivo, athymic nude mice; settings: for % of tumor growth for treated vs. control (T/C) / anti-tumor activity rating (NCI standards): lorvotuzumab mertansine 11 mg/kg iv once weekly x3, gemcitabine 80 mg/kg ip every three days x4, combination same doses; for tumor regressions (any): six mice per group, single-agent groups
From the text: (§1) Mice were inoculated with human ovarian cancer cell lines and allowed to become established (average tumor size of about 100 mm^3) prior to treatment. Conjugate dosing is described based on antibody concentration. Efficacy is reported as both the % of tumor growth for treated vs. control (% T/C) and log cell kill (LCK) determined from the tumor doubling time and the tumor growth delay due to the treatment.
The anti-tumor effect of a combination of lorvotuzumab mertansine and gemcitabine was evaluated in an established subcutaneous xenograft model of ovarian cancer. Athymic nude mice were inoculated with COLO 720E human ovarian cancer cells (1×10^7 cells/animal) injected subcutaneously into the right flank. When the tumors reached about 110 mm^3 in size (10 days after tumor cell inoculation), the mice were randomly divided into four groups (six animals per group). A control group was treated with a single intravenous injection of PBS. A second group of mice were treated with the single agent lorvotuzumab mertansine at a dose of 11 mg/kg once weekly for three weeks (days 11, 18 and 25 post tumor cell inoculation) administered intravenously. The third group received single-agent gemcitabine administered intraperitoneally at a dose of 80 mg/kg every three days for a total of four injections (days 11, 14, 17 and 20 post tumor cell inoculation). A fourth group was treated with the combination of lorvotuzumab mertansine and gemcitabine with the same doses and routes of administration as for individual treatments. Tumor growth was monitored by measuring tumor size twice per week. Tumor size was calculated with the formula: length×width×height×½.

[2] = test system: COLO 720E human ovarian carcinoma xenografts; experiment: Anti-tumor effect of lorvotuzumab mertansine and topotecan in established subcutaneous COLO 720E xenografts (Example 2); assay type: in vivo, athymic nude mice; design: key to anti-tumor activity rating (NCI standards): Percent T/C values less than or equal to 42% and/or LCK values of 0.5 or greater are considered active; percent T/C values less than 10% are considered highly active; settings: for mice tumor free until the end of the study: day 120, six mice per group; for % of tumor growth for treated vs. control (T/C) / anti-tumor activity rating (NCI standards): lorvotuzumab mertansine 11 mg/kg iv once weekly x3, topotecan 0.7 mg/kg ip 5/2/5 schedule, combination same doses
From the text: Mice were inoculated with human ovarian cancer cell lines and allowed to become established (average tumor size of about 100 mm^3) prior to treatment. Conjugate dosing is described based on antibody concentration. Efficacy is reported as both the % of tumor growth for treated vs. control (% T/C) and log cell kill (LCK) determined from the tumor doubling time and the tumor growth delay due to the treatment. […] Athymic nude mice were inoculated with COLO 720E human ovarian cancer cells (1×10^7 cells/animal) injected subcutaneously into the right flank. When the tumors reached about 115 mm^3 in size (12 days after tumor cell inoculation), the mice were randomly divided into four groups (six animals per group). A control group was treated with a single intravenous injection of PBS. A second group of mice were treated with the single agent lorvotuzumab mertansine at a dose of 11 mg/kg once weekly for three weeks (days 12, 19 and 26 post tumor cell inoculation) administered intravenously. The third group received single-agent topotecan administered intraperitoneally at a dose of 0.7 mg/kg on a 5/2/5 schedule (daily×5, 2 days off, daily×5; days 12-16 and 19-23 post tumor cell inoculation). A fourth group was treated with the combination of lorvotuzumab mertansine and topotecan with the same doses and routes of administration as for individual treatments. Tumor growth was monitored by measuring tumor size twice per week. Tumor size was calculated with the formula: length×width×height×½.

[3] = test system: human xenograft preclinical models for ovarian cancer; settings: no data given; cited from earlier work
[4] = test system: COLO 720E human ovarian carcinoma xenografts; experiment: Anti-tumor effect of lorvotuzumab mertansine and DOXIL in established subcutaneous COLO 720E xenografts (Example 3); assay type: in vivo, athymic nude mice; design: key to anti-tumor activity rating (NCI standards): Percent T/C values less than or equal to 42% and/or LCK values of 0.5 or greater are considered active; percent T/C values less than 10% are considered highly active
From the text: as §1
The anti-tumor effect of a combination of lorvotuzumab mertansine and DOXIL® (i.e., PEGylated Liposomal Doxorubicin (PLD)) was evaluated in an established subcutaneous xenograft model of ovarian cancer. Athymic nude mice were inoculated with COLO 720E human ovarian cancer cells (1×10^7 cells/animal) injected subcutaneously into the right flank. When the tumors reached about 100 mm^3 in size (10 days after tumor cell inoculation), the mice were randomly divided into four groups (six animals per group). A control group was treated with a single intravenous injection of PBS. A second group of mice were treated with the single agent lorvotuzumab mertansine at a dose of 11 mg/kg once weekly for three weeks (days 10, 17 and […] post tumor cell inoculation) administered intravenously. The third group received single-agent DOXIL® at a dose of 11 mg/kg (single injection on day 10 post tumor cell inoculation) administered intravenously. A fourth group was treated with the combination of lorvotuzumab mertansine and DOXIL® with the same doses and routes of administration as for individual treatments. Tumor growth was monitored by measuring tumor size twice per week. Tumor size was calculated with the formula: length×width×height× 1/2.

[5] = lorvotuzumab mertansine 11 mg/kg iv once weekly x3, DOXIL 11 mg/kg iv single injection, combination same doses

Question: Which results are given for `Nc1ccn([C@@H]2O[C@H](CO)[C@@H](O)C2(F)F)c(=O)n1` [gemcitabine, reference compound]?
Answer: % of tumor growth for treated vs. control (T/C) [1]: 77%; anti-tumor activity rating (NCI standards) [1]: inactive; tumor regressions (any) [1]: no regressions

Question: Which “mice tumor free until the end of the study” value [2] does the source give for `CC[C@@]1(O)C(=O)OCc2c1cc1n(c2=O)Cc2cc3c(CN(C)C)c(O)ccc3nc2-1` [topotecan, reference compound] here?
Answer: no tumor-free mice

Question: What about the “% of tumor growth for treated vs. control (T/C)” value (shortened to “% of tumor growth”) [2] of the same molecule?
Answer: 26%

Question: And the “anti-tumor activity rating (NCI standards)” value (“anti-tumor activity rating” below) [2]?
Answer: active

Question: What about the “complete regression (CR)” value ([2]; six mice per group) of the same molecule?
Answer: one of six

B1: lorvotuzumab mertansine: antibody-drug conjugate comprised of the CD56-binding monoclonal antibody huN901, the SPP linker, and the maytansinoid cytotoxic agent DM1 (conjugate, chains of the INN, looked up)
VH: QVQLVESGGGVVQPGRSLRLSCAASGFTFSSFGMHWVRQAPGKGLEWVAYISSGSFTIYYADSVKGRFTISRDNSKNTLYLQMNSLRAEDTAVYYCARMRKGYAMDYWGQGTLVTVSS
VL: DVVMTQSPLSLPVTLGQPASISCRSSQIIIHSDGNTYLEWFQQRPGQSPRRLIYKVSNRFSGVPDRFSGSGSGTDFTLKISRVEAEDVGVYYCFQGSHVPHTFGQGTKVEIK
modifications: SPP linker, DM1 maytansinoid
Question: Which “% of tumor growth” value [1] does the source give for B1 here?
Answer: 38%

Question: What about the “anti-tumor activity rating” value [1] of the same molecule?
Answer: modest antitumor activity; also recorded: active

Question: What about the “tumor regressions (any)” value [1] of the same molecule?
Answer: no tumor regressions

Question: And the “antitumor activity as a single agent” value [3]?
Answer: marked antitumor activity

Question: What about the “mice remaining tumor free to the end of the study” value ([4]; day 118, six mice per group) of the same molecule?
Answer: one

Question: What about the “% of tumor growth” value [4, 5] of the same molecule?
Answer: 14%

Question: And the “anti-tumor activity rating” value [4, 5]?
Answer: active

Question: What about the “complete regressions (CR)” value ([4]; six mice per group) of the same molecule?
Answer: one and one of six

Question: And the “mice tumor free until the end of the study” value [2]?
Answer: no tumor-free mice

Question: And the “% of tumor growth” value [2]?
Answer: 59%

Question: What about the “anti-tumor activity rating” value [2] of the same molecule?
Answer: inactive

Question: What about the “partial regression (PR)” value ([2]; six mice per group) of the same molecule?
Answer: one of six
